# Reference: the supplement of paper PMC9112550, “Optimization of the antimicrobial peptide Bac7 by deep mutational scanning” (BMC Biology, 2022)
# Test system: Escherichia coli TOP10
# Test: shrunken log2 fold change of peptide-encoding DNA abundance (4.5 h post-induction vs induction); higher = less antimicrobial activity (less host growth inhibition)
# Conditions: time post-induction: 4.5 h; library: site-saturation at positions 5, 18, 19, 20
# 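Further: peptides expressed intracellularly from a pBAD plasmid library in pooled LB shake-flask culture, induced with 0.3% L-arabinose, DNA abundance read by NGS, three biological replicates, DESeq2 with apeglm shrinkage.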
row,Sequence,shrunken log2 fold change
1,RRIRNRPPRLPRPRPRPEAKPRP,0.302
2,RRIRNRPPRLPRPRPRPECCPRP,0.517
3,RRIRNRPPRLPRPRPRPECGPRP,0.445
4,RRIRNRPPRLPRPRPRPEDTPRP,-0.0307
5,RRIRNRPPRLPRPRPRPEEIPRP,-0.000921
6,RRIRNRPPRLPRPRPRPEFCPRP,0.0216
7,RRIRNRPPRLPRPRPRPEFMPRP,0.0662
8,RRIRNRPPRLPRPRPRPEHDPRP,0.0627
9,RRIRNRPPRLPRPRPRPEIIPRP,-0.00607
10,RRIRNRPPRLPRPRPRPEKEPRP,-0.159
11,RRIRNRPPRLPRPRPRPELFPRP,-0.0281
12,RRIRNRPPRLPRPRPRPENMPRP,-0.262
13,RRIRNRPPRLPRPRPRPEPNPRP,0.0829
14,RRIRNRPPRLPRPRPRPEPPPRP,0.758
15,RRIRNRPPRLPRPRPRPESCPRP,0.073
16,RRIRNRPPRLPRPRPRPEVDPRP,0.478
17,RRIRNRPPRLPRPRPRPEVFPRP,0.0362
18,RRIRNRPPRLPRPRPRPEVSPRP,-0.0183
19,RRIRNRPPRLPRPRPRPEWQPRP,-0.0264
20,RRIRNRPPRLPRPRPRPEYAPRP,-0.175
21,RRIRNRPPRLPRPRPRPEYIPRP,-0.0947
22,RRIRNRPPRLPRPRPRPFATPRP,-0.101
23,RRIRNRPPRLPRPRPRPFFTPRP,-0.147
24,RRIRNRPPRLPRPRPRPFGGPRP,-0.133
25,RRIRNRPPRLPRPRPRPFGIPRP,-0.0138

row,Sequence,shrunken log2 fold change
1,RRIRNRPPRLPRPRPRPFGPPRP,-0.406
2,RRIRNRPPRLPRPRPRPFHHPRP,-0.27
3,RRIRNRPPRLPRPRPRPFIKPRP,-0.473
4,RRIRNRPPRLPRPRPRPFKRPRP,0.09
5,RRIRNRPPRLPRPRPRPFMLPRP,-1.17
6,RRIRNRPPRLPRPRPRPFMTPRP,-0.429
7,RRIRNRPPRLPRPRPRPFMVPRP,-0.646
8,RRIRNRPPRLPRPRPRPFMWPRP,-0.134
9,RRIRNRPPRLPRPRPRPFNDPRP,-0.0288
10,RRIRNRPPRLPRPRPRPFNTPRP,-0.765
11,RRIRNRPPRLPRPRPRPFQLPRP,-0.228
12,RRIRNRPPRLPRPRPRPFRQPRP,0.0231
13,RRIRNRPPRLPRPRPRPFRSPRP,0.033
14,RRIRNRPPRLPRPRPRPFSKPRP,-0.303
15,RRIRNRPPRLPRPRPRPFSVPRP,-0.678
16,RRIRNRPPRLPRPRPRPFTEPRP,-0.236
17,RRIRNRPPRLPRPRPRPFTNPRP,0.00408
18,RRIRNRPPRLPRPRPRPFVIPRP,-0.528
19,RRIRNRPPRLPRPRPRPFWEPRP,-0.372
20,RRIRNRPPRLPRPRPRPFWLPRP,-0.189
21,RRIRNRPPRLPRPRPRPFWQPRP,0.201
22,RRIRNRPPRLPRPRPRPFYRPRP,-0.131
23,RRIRNRPPRLPRPRPRPGAGPRP,0.234
24,RRIRNRPPRLPRPRPRPGCSPRP,0.121
25,RRIRNRPPRLPRPRPRPGDNPRP,0.0229

row,Sequence,shrunken log2 fold change
1,RRIRNRPPRLPRPRPRPGEFPRP,-0.00204
2,RRIRNRPPRLPRPRPRPGGYPRP,-0.0538
3,RRIRNRPPRLPRPRPRPGHVPRP,-0.0552
4,RRIRNRPPRLPRPRPRPGIPPRP,-0.0284
5,RRIRNRPPRLPRPRPRPGLLPRP,-0.171
6,RRIRNRPPRLPRPRPRPGMMPRP,-0.247
7,RRIRNRPPRLPRPRPRPGNVPRP,-0.107
8,RRIRNRPPRLPRPRPRPGPVPRP,0.127
9,RRIRNRPPRLPRPRPRPGQCPRP,0.0172
10,RRIRNRPPRLPRPRPRPGQFPRP,-0.0134
11,RRIRNRPPRLPRPRPRPGQTPRP,0.00913
12,RRIRNRPPRLPRPRPRPGRFPRP,0.327
13,RRIRNRPPRLPRPRPRPGSVPRP,-0.0436
14,RRIRNRPPRLPRPRPRPGTEPRP,-0.145
15,RRIRNRPPRLPRPRPRPGTFPRP,-0.281
16,RRIRNRPPRLPRPRPRPGVFPRP,0.117
17,RRIRNRPPRLPRPRPRPGVNPRP,0.0306
18,RRIRNRPPRLPRPRPRPGVVPRP,0.176
19,RRIRNRPPRLPRPRPRPGWEPRP,1.72
20,RRIRNRPPRLPRPRPRPHCLPRP,-0.466
21,RRIRNRPPRLPRPRPRPHCWPRP,0.0498
22,RRIRNRPPRLPRPRPRPHEMPRP,-0.33
23,RRIRNRPPRLPRPRPRPHFRPRP,0.0231
24,RRIRNRPPRLPRPRPRPHFYPRP,-0.816
25,RRIRNRPPRLPRPRPRPHGIPRP,-0.154

row,Sequence,shrunken log2 fold change
1,RRIRNRPPRLPRPRPRPHGYPRP,-0.066
2,RRIRNRPPRLPRPRPRPHHHPRP,-0.617
3,RRIRNRPPRLPRPRPRPHHKPRP,-0.461
4,RRIRNRPPRLPRPRPRPHIDPRP,-0.186
5,RRIRNRPPRLPRPRPRPHIHPRP,-0.445
6,RRIRNRPPRLPRPRPRPHKSPRP,-0.298
7,RRIRNRPPRLPRPRPRPHKVPRP,-0.513
8,RRIRNRPPRLPRPRPRPHLCPRP,0.183
9,RRIRNRPPRLPRPRPRPHLMPRP,-0.584
10,RRIRNRPPRLPRPRPRPHNRPRP,0.0237
11,RRIRNRPPRLPRPRPRPHNTPRP,-0.643
12,RRIRNRPPRLPRPRPRPHNWPRP,-0.391
13,RRIRNRPPRLPRPRPRPHPNPRP,0.0207
14,RRIRNRPPRLPRPRPRPHQLPRP,-0.0583
15,RRIRNRPPRLPRPRPRPHQRPRP,0.244
16,RRIRNRPPRLPRPRPRPHRTPRP,-0.827
17,RRIRNRPPRLPRPRPRPHSGPRP,-0.517
18,RRIRNRPPRLPRPRPRPHSTPRP,-0.412
19,RRIRNRPPRLPRPRPRPHSYPRP,0.132
20,RRIRNRPPRLPRPRPRPHTVPRP,-0.118
21,RRIRNRPPRLPRPRPRPHWQPRP,-0.115
22,RRIRNRPPRLPRPRPRPIAKPRP,-0.000903
23,RRIRNRPPRLPRPRPRPIEIPRP,0.0194
24,RRIRNRPPRLPRPRPRPIFAPRP,0.111
25,RRIRNRPPRLPRPRPRPIFMPRP,-0.116

row,Sequence,shrunken log2 fold change
1,RRIRNRPPRLPRPRPRPIFRPRP,-0.0067
2,RRIRNRPPRLPRPRPRPIGVPRP,0.249
3,RRIRNRPPRLPRPRPRPIIRPRP,-0.00165
4,RRIRNRPPRLPRPRPRPIKNPRP,-0.108
5,RRIRNRPPRLPRPRPRPILMPRP,-0.0495
6,RRIRNRPPRLPRPRPRPIQGPRP,-0.105
7,RRIRNRPPRLPRPRPRPIQNPRP,-0.139
8,RRIRNRPPRLPRPRPRPIRWPRP,0.18
9,RRIRNRPPRLPRPRPRPISFPRP,-0.0972
10,RRIRNRPPRLPRPRPRPISSPRP,-0.0365
11,RRIRNRPPRLPRPRPRPISVPRP,-0.00409
12,RRIRNRPPRLPRPRPRPIWPPRP,0.152
13,RRIRNRPPRLPRPRPRPIYGPRP,-0.224
14,RRIRNRPPRLPRPRPRPIYWPRP,0.0553
15,RRIRNRPPRLPRPRPRPKARPRP,-0.00166
16,RRIRNRPPRLPRPRPRPKAVPRP,0.301
17,RRIRNRPPRLPRPRPRPKCCPRP,-0.0855
18,RRIRNRPPRLPRPRPRPKDGPRP,-0.00992
19,RRIRNRPPRLPRPRPRPKEMPRP,-0.0529
20,RRIRNRPPRLPRPRPRPKFCPRP,-0.198
21,RRIRNRPPRLPRPRPRPKHMPRP,-0.382
22,RRIRNRPPRLPRPRPRPKIEPRP,-0.0398
23,RRIRNRPPRLPRPRPRPKISPRP,-0.484
24,RRIRNRPPRLPRPRPRPKLTPRP,2
25,RRIRNRPPRLPRPRPRPKMHPRP,-0.0913

row,Sequence,shrunken log2 fold change
1,RRIRNRPPRLPRPRPRPKMKPRP,-0.286
2,RRIRNRPPRLPRPRPRPKMRPRP,0.313
3,RRIRNRPPRLPRPRPRPKMTPRP,-0.149
4,RRIRNRPPRLPRPRPRPKMWPRP,0.279
5,RRIRNRPPRLPRPRPRPKNAPRP,-0.0561
6,RRIRNRPPRLPRPRPRPKPDPRP,0.355
7,RRIRNRPPRLPRPRPRPKRPPRP,0.589
8,RRIRNRPPRLPRPRPRPKSFPRP,-0.00133
9,RRIRNRPPRLPRPRPRPKSHPRP,-0.253
10,RRIRNRPPRLPRPRPRPKTCPRP,0.0411
11,RRIRNRPPRLPRPRPRPKWAPRP,-0.0431
12,RRIRNRPPRLPRPRPRPKWCPRP,-0.00686
13,RRIRNRPPRLPRPRPRPKWVPRP,0.132
14,RRIRNRPPRLPRPRPRPKYIPRP,-0.667
15,RRIRNRPPRLPRPRPRPLDWPRP,-0.0554
16,RRIRNRPPRLPRPRPRPLENPRP,-0.0075
17,RRIRNRPPRLPRPRPRPLFRPRP,-0.266
18,RRIRNRPPRLPRPRPRPLKVPRP,4.47
19,RRIRNRPPRLPRPRPRPLLGPRP,0.232
20,RRIRNRPPRLPRPRPRPLLYPRP,-0.588
21,RRIRNRPPRLPRPRPRPLMMPRP,-0.193
22,RRIRNRPPRLPRPRPRPLNDPRP,-0.0316
23,RRIRNRPPRLPRPRPRPLSCPRP,-0.238
24,RRIRNRPPRLPRPRPRPLSDPRP,-0.0613
25,RRIRNRPPRLPRPRPRPLTIPRP,-0.389
